A short description of the series: yeast display, Sf9 membrane polyspecificity reagent, FACS + sequencing; frameworks hold sequencing errors. In short, it runs like this: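 Nanobodies came from a synthetic yeast display library in Saccharomyces cerevisiae BJ5465, induced with galactose for 36–48 hours and stained for 1 hour at 4 °C with 10% biotinylated, detergent-solubilized Sf9 membrane reagent. Cells were enriched on streptavidin microbeads and then FACS-sorted, with low and high (top ~1%) gates set on anti-HA fluorescence for expression and streptavidin fluorescence for reagent binding. Each polyreactivity label reflects the gate a clone came from. Genes were amplified by colony PCR, sequenced by MiSeq 2 × 250 and filtered by CDR length.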
With “QVQLVESGGGLVQAGGSLRLSCAASGSIFYRYAMGWNRPAPGKERELVAAISRSGGTTYYADSVKGRFTISRDNAKNTVYLQMYCLKPEDTAVYYCAALVFHAYSTDPYFYWGQGTQVTVSS”, the “polyreactivity (PSR sort gate)” value was “high polyreactivity”.

As for “QVQLVESGGGLVQAGGSLRLSCAASGSIFYRYAMGWYRPAPGKERELVAAISSTGSTYYADSVKGRFTISRDNAKNTVYLQMNSLKPEDTAVYYCAARQGFRSYRRYDYWGQGTQVTVSS”, the “polyreactivity (PSR sort gate)” value is recorded as “high polyreactivity”.

Regarding “QVQLVESGGGLVQAGGSLRLSCAASGSIFYRYAMGWYRQAPGKERELVASISSGVSTNYADSVKGRFTISRDNAKNTVYLQMNSLKPEDTAVYYCAAYYRGWSSSYWYPAYNYWGQGTQVTVSS”, the “polyreactivity (PSR sort gate)” value is listed as “low polyreactivity”.

For “QVQLVESGGGLVQAGGSLRLSCAASGSIFYRYAMGWYRQAPGKERELVATITRRGGTTYYADSVKGRFTISRDNAKNTVYLKMNSLKPEDTAVYYCARPYLRASYGAIDYDYWGQGTQVTVSS”, the “polyreactivity (PSR sort gate)” value is listed as “high polyreactivity”.

With “QVQLVESGGGLVQAGGSLRLSCAASGSIFYRYAMGWYRQAPGKERELVAVISTGGSTYYADSVKGRFTISRDNAKNTVYLQMNSLKPEDTAVYYCNVLYYSRYAPYGRYGYWGQGTQVTVSS”, the “polyreactivity (PSR sort gate)” value is “high polyreactivity”.

For “QVQLVESGGGLVQAGGSLRLSCAASGSIFYRYAMGWYSQAPGKERELVAAINNGGGRTYADSVKGRCTISRDNAKNTVYLQMNSLKPEDTAVYYCAARYYRDYRWYTYAYDYWGQGTQVNVSS”, the “polyreactivity (PSR sort gate)” value is recorded as “high polyreactivity”.

Regarding “QVQLVESGGGLVQAGGSLRLSCAASGSIFYSNAMGWYRQAPGKEREFVAAISAGGGSTYYADSVKGRFTISRDNAKNPVYLQMNSLKPEDTAVYYCAAQQYKIIYPYDYWGQGTQVTVSS”, the “polyreactivity (PSR sort gate)” value is “low polyreactivity”.

As to “QVQLVESGGGLVQAGGSLRLSCAASGSIFYSNAMGWYRQAPGKERELVAAISWSGGSTYYADSVKGRFTISRDYAKNTVYLQMNSLKPEDTAVYYCAASYDIYYYDAASLDDYDYWGQGTQVTVSS”, the “polyreactivity (PSR sort gate)” value is given as “low polyreactivity”.

Take “QVQLVESGGGLVQAGGSLRLSCAASGSIFYSNAMGWYRQAPGKERELVAAITSGGRTYYADSVKGRFTISRDNAKNTVYLQMNSLKPEDTAVFYCAARYYLGSWSDYYYWGQGTQVTVSS”: the “polyreactivity (PSR sort gate)” value was “high polyreactivity”.

In the case of “QVQLVESGGGLVQAGGSLRLSCAASGSIFYSNAMGWYRQAPGKERELVAAITSSGGITRYADSVKGRFTISRDNAKNTVYLQMNSLKPEDTAVYYCAKDIRVYASDYWGQGTQVTVSS”, the “polyreactivity (PSR sort gate)” value was “low polyreactivity”.

As to “QVQLVESGGGLVQAGGSLRLSCAASGSIFYSNAMGWYRQAPGKERELVAAITWRGGSTYYADSVKGRFTISRDNAKYTVYLQLNSLKPEDTAVYYCNADGSARTPYYYRWYRYGYWGQGTQVTVSS”, the “polyreactivity (PSR sort gate)” value was “high polyreactivity”.

Take “QVQLVESGGGLVQAGGSLRLSCAASGSIFYSNFMGWYRQAPGKERELVARITDAGSTNYADSVKGRFTISRDNAKNSVYLQMNSLKPEDTAVYYCNARLVIYTYDYWGQGTQVTVSS”: the “polyreactivity (PSR sort gate)” value is reported as “low polyreactivity”.

In the case of “QVQLVESGGGLVQAGGSLRLSCAASGSIFYSYAMGWYRQAPGKERELVAAINWSGGSTYYADSVKGRFTISRDNAKNTVYLQMKSLKPEDTAVYYCAADYGWGPIYDYWGQGTQVTVSS”, the “polyreactivity (PSR sort gate)” value is listed as “low polyreactivity”.

Take “QVQLVESGGGLVQAGGSLRLSCAASGSIFYSYAMGWYRQAPGKERELVAAISFSGGSTYYADSVKGRFTISRDNAKNTVYLHMNSLKPEDPAVYYCNTLSADTFDYWGQGTQVTVSS”: the “polyreactivity (PSR sort gate)” value is “low polyreactivity”.

As for “QVQLVESGGGLVQAGGSLRLSCAASGSIFYSYAMGWYRQAPGKERELVAAISTTGGSTYYADSVKGRFTISRDNAKNTVYLQMNSLKPEDTAVYYCAREQGFRGDWYDYWGQGTQVTVSS”, the “polyreactivity (PSR sort gate)” value is “high polyreactivity”.

For the sequence “QVQLVESGGGLVQAGGSLRLSCAASGSIFYSYAMGWYRQAPGKERELVAAITSRTGNTYYADSVKGRFTISRDNAKNTVYLQMNSLKPEDTAVYYCAAKLVNALLHYRIWNHNNYWGQGTQVSVSS”, the “polyreactivity (PSR sort gate)” value is reported as “low polyreactivity”.

In the case of “QVQLVESGGGLVQAGGSLRLSCAASGSIFYSYAMGWYRQAPGKERELVARITKRGGRTYYADSVKGRFTISRDNAKNTVYLQMNSLKPEDTAVYYCAATTGHRTYRYYYWGQGTQVTVSS”, the “polyreactivity (PSR sort gate)” value is recorded as “high polyreactivity”.

For “QVQLVESGGGLVQAGGSLRLSCAASGSIFYSYAMGWYRQAPGKERELVASINWSGASTYYADSVKGRFTISRDYAKNTVYLQMNSLKPEDTAVYYCAADWWGYDGRYDYWGQGTQVTVSS”, the “polyreactivity (PSR sort gate)” value is “high polyreactivity”.

“QVQLVESGGGLVQAGGSLRLSCAASGSIFYSYAMGWYRQAPGKERELVAVITRGGSTNYADSVKGRFTISRDNAKNTVYLQLNSLKPEDTAVYYCNKDRYGKVFRYPPYYRSSPYDYWGQGTQVTVSS”: the “polyreactivity (PSR sort gate)” value was “high polyreactivity”.

“QVQLVESGGGLVQAGGSLRLSCAASGSIFYSYVMGWYRQAPGKERELVAAISRNGQSTYYADSVKGRFTISRDNAKNTVYLQMNSLKPEDTAVYYCAARSRDKYDYWGQGTQVTVSS”: the “polyreactivity (PSR sort gate)” value is reported as “high polyreactivity”.

As for “QVQLVESGGGLVQAGGSLRLSCAASGSIFYTNAMGWYRQATGKERELVAVITASGGSTYYADSVKGRFTISRDNAKNTVYLQMNSLKPEDTAVYYCAADPVFNYDYWGQGTQVTVSS”, the “polyreactivity (PSR sort gate)” value is “low polyreactivity”.

With “QVQLVESGGGLVQAGGSLRLSCAASGSIFYTYAMGWYRPAPGKEREFVAAITSSGGSTYYADSVKGRFTISRDNAKNTVYLQMNSLKPEDTAVYYCAARTPHYGKCYDIFDYWGQGTQVTVSS”, the “polyreactivity (PSR sort gate)” value is “low polyreactivity”.

In the case of “QVQLVESGGGLVQAGGSLRLSCAASGSIFYTYAMGWYRQAPGKERELVAAISGTGTSTYYADSVKGRFTISRDHAKNTVYLQMNSLKPEDTAVYFCATHGGAAWGRYYWYYGYWGQGTQVTVSS”, the “polyreactivity (PSR sort gate)” value was “low polyreactivity”.

Consider “QVQLVESGGGLVQAGGSLRLSCAASGSIFYTYAMGWYRQAPGKERELVAAITYSGGSTYYADSVKGRFTISRDNAKNTVYLQMNSLKPEDTAVYYCAAYVIPGLGAEYGYWGQGTQVTVSS”, for which the “polyreactivity (PSR sort gate)” value is “low polyreactivity”.

Turning to “QVQLVESGGGLVQAGGSLRLSCAASGSIFYTYVMGWYRQAPGKVREFVAAISKSGGSTYYADSVKGRFTISRDNAKNPVYLQMNSLIPEVTAVYYCAAYPIVSIQRRARGNSWGQGTQVTVSS”, the “polyreactivity (PSR sort gate)” value is given as “high polyreactivity”.

Take “QVQLVESGGGLVQAGGSLRLSCAASGSIFYTYVMGWYRQAPRKERELVAAITRAGNTYYADSVKGRFTISRDNAKKTVYLQMNILKPEDTAVYYCAAGRYKPFTYHFDYWGQGTQVTVSS”: the “polyreactivity (PSR sort gate)” value was “high polyreactivity”.

With “QVQLVESGGGLVQAGGSLRLSCAASGSIFYVKTMGWSRQAPGKEREFLAAINYSGDSTYADSVKGRFTISRDNAKNTVYLQMIRLKPEDTAVYYCNAVPVRYLRGRNGHDYWGQGTQVTVSS”, the “polyreactivity (PSR sort gate)” value is listed as “high polyreactivity”.

With “QVQLVESGGGLVQAGGSLRLSCAASGSIFYVYAMGGYRQAPGKERELVAAITSGSSTNYADSVKGRFTISRDNAKNTVYLQMNSLKPEDTAVYYCAASFRDDFPQRLDYWGQGTQVTVSS”, the “polyreactivity (PSR sort gate)” value is given as “low polyreactivity”.

For “QVQLVESGGGLVQAGGSLRLSCAASGSIFYVYAMGWYRQAPGKERELVAAISRGGGSTSYADSVKGRFTISRDNAKNTVYLQMNSLKPEDTAVYYCNAYTYYHANHEQGFGYWGQGTQVTVSS”, the “polyreactivity (PSR sort gate)” value is on record as “low polyreactivity”.

“QVQLVESGGGLVQAGGSLRLSCAASGSIFYVYAMGWYRQAPGKERELVATIDWSGGSTYYADSVKGRFTISRDNAKNTVYLQMNSLKPEDTAVYYCAAPTEQDPFAPVAFYRYDYWGQGTQVTLSS”: the “polyreactivity (PSR sort gate)” value is recorded as “low polyreactivity”.

With “QVQLVESGGGLVQAGGSLRLSCAASGSIFYVYAMGWYRQAPGKEREMVAAINTSGGSTFYADSVKGRFTISRDNAKNTVYLQMNSLKPEETAVYYCAAERYRYRSTDTMVYWGQGTQVTVSS”, the “polyreactivity (PSR sort gate)” value is “low polyreactivity”.

On to “QVQLVESGGGLVQAGGSLRLSCAASGSIFYVYAMGWYRQAPGNERELVAAINTSGGSTFYADSVKGRFTISRDNAKNTVYLQINSLKPEDTAVYYCAAERYRYRSTDTMGYWGQGTQVTVSS”, for which the “polyreactivity (PSR sort gate)” value was “low polyreactivity”.

For “QVQLVESGGGLVQAGGSLRLSCAASGSIFYWYAMGWYRQAPGKERELVAAIDISDDTYYADSVKGRFTISRDNAKNTVYLQMNSLKPEDTAFYYCAARNTRWFYEYDWGQGTQVTVSS”, the “polyreactivity (PSR sort gate)” value is on record as “high polyreactivity”.

As to “QVQLVESGGGLVQAGGSLRLSCAASGSIFYWYVMVWYRQAPGKERELVATISDSTNYADSVKGRFTISRDNAKNTVYLQMNSLKPEDTAVYYCNARVRGLGKYESWGQGTQVTVSS”, the “polyreactivity (PSR sort gate)” value is recorded as “low polyreactivity”.

“QVQLVESGGGLVQAGGSLRLSCAASGSIFYYAMGWYRQAPGKERELVAAITWRGGRTYYADSVKGRFTISRDNAKNTVYLQMNSLKPEDTAVYDFNAVAPGKYNLWGQGTQVTVSS”: the “polyreactivity (PSR sort gate)” value is “high polyreactivity”.

“QVQLVESGGGLVQAGGSLRLSCAASGSIFYYGMGWYRQAPGKERELVAAITRGGSTYYADSVKGRFTISRDNAKNTVYLQMNSLKPEDTAVYYCATGPLVYYSARYSSYVYPYDYWGQGTQVTVSS”: the “polyreactivity (PSR sort gate)” value was “low polyreactivity”.

As for “QVQLVESGGGLVQAGGSLRLSCAASGSIFYYNAMGLYIQAPGKERELVAAITSSGGSTYYADSVKGRFTISRDNAKNTVYLQMNSLNPEDTAVYYCNNDTLVYGYVQDSEYWGQGTQVTVSS”, the “polyreactivity (PSR sort gate)” value was “low polyreactivity”.

Turning to “QVQLVESGGGLVQAGGSLRLSCAASGSIFYYNAMGWYRQAPGKERELVAAITSGDSTNYADSVKGRFTISRDNAKNPVYLQMNSLKPEDTAVYYCAADYLAALTYYRTYDYWGQGTQVTVSS”, the “polyreactivity (PSR sort gate)” value is reported as “low polyreactivity”.

For the sequence “QVQLVESGGGLVQAGGSLRLSCAASGSIFYYNAMGWYRQAPGKESELVAASSRRVGNTYYADSVKGRFTISRDNAKNTVYLQMNSLKPEDTAVYYCNTDRSSRPSYDYWGQGTQVTVSS”, the “polyreactivity (PSR sort gate)” value is reported as “high polyreactivity”.

In the case of “QVQLVESGGGLVQAGGSLRLSCAASGSIFYYNTMGWYRQAPGKERELVAGISWGGGRTYYADSVKGRFTISRDNAKNTVYLQMNSLKPEDTAVYYCNARHRRLPSNGGYDYWGQGTQVTVSS”, the “polyreactivity (PSR sort gate)” value was “high polyreactivity”.

The values are drawn from the nanobody polyreactivity screen of Harvey et al. (2022).
